Starred links: 1 amine or outer side, 2 acyl side, 3 side chain; linkers in the order of their positions; H or OH if unused. Non-standard residues stand in square brackets, D forms with d. Primed or numbered codes have the meaning given here. No end group written: not given here. Trimesoyl = O=C(c1cc(C(=O)[*:2])cc(C(=O)[*:3])c1)[*:1]; dPhe(4-CN) = N#Cc1ccc(C[C@@H](N)C(=O)O)cc1; d(pT) = C[C@H](OP(=O)(O)O)[C@@H](N)C(=O)O; Phe(4-F) = N[C@@H](Cc1ccc(F)cc1)C(=O)O; 2Nal = N[C@@H](Cc1ccc2ccccc2c1)C(=O)O; Pip′ = L-homoproline (pipecolyl); D‑4‑Phe = not defined here; Pip = O=C(O)[C@@H]1CCCCN1; d4Phe = not defined here; Dap = NC[C@H](N)C(=O)O; βAla = NCCC(=O)O; Sar = CNCC(=O)O
Target: Pin1 (Example 6, construct not stated) (human) (UniProt Q13526)
Experiment: fluorescence anisotropy

Binder	Kd [nM]	fold increase of Pin1 inhibitory activity on substitution of D-Phe for D-Ala [fold]	fold improvement of binding affinity against peptide 4 [fold]
Trimesoyl-[d4Phe][Phe(4-F)][dhGlu][Pip][2Nal]RA[dF][Dap]F[2Nal]RRRR[Dap]K (linker (positions not given here) via Trimesoyl; not fully specified (bridges); printed as bicyclo[Tm-(D-4-Phe-Fpa-D-homoGlu-Pip-Nal-Arg-Ala-D-Phe)-Dap-(Phe-Nal-Arg-Arg-Arg-Arg-Dap)]-Lys; reading uncertain) [peptide 41 (Table 18)]	870		
Trimesoyl-P[Sar][dD][Pip′][2Nal]RR[dF][Dap]F[2Nal]RRRR[Dap]K-NH2 (linker (positions not given here) via Trimesoyl; not fully specified (some residues, bridges); printed as bicyclo[Tm-(Pro-Sar-D-Asp-Pip-Nal-Arg-Arg-D-Phe)-Dap-(Phe-Nal-Arg-Arg-Arg-Arg-Dap)]-Lys) [peptide 22 (Table 18)]	480	2	
Trimesoyl-P[Sar][dD][Pip′][2Nal]RY[dA][Dap]F[2Nal]RRRR[Dap]K-NH2 (linker (positions not given here) via Trimesoyl; not fully specified (some residues, bridges); printed as bicyclo[Tm-(Pro-Sar-D-Asp-Pip-Nal-Arg-Tyr-D-Ala)-Dap-(Phe-Nal-Arg-Arg-Arg-Arg-Dap)]-Lys) [peptide 17 (Table 18)]	2170		
Trimesoyl-P[Sar][dD][Pip′][2Nal]RV[dA][Dap]F[2Nal]RRRR[Dap]K-NH2 (linker (positions not given here) via Trimesoyl; not fully specified (some residues, bridges); printed as bicyclo[Tm-(Pro-Sar-D-Asp-Pip-Nal-Arg-Val-D-Ala)-Dap-(Phe-Nal-Arg-Arg-Arg-Arg-Dap)]-Lys) [peptide 18 (Table 18)]	1750		
Trimesoyl-[dF][Phe(4-F)][dT][Pip′][2Nal]RA[dF][Dap]R[2Nal]RFRR[Dap]K (linker (positions not given here) via Trimesoyl; not fully specified (C-terminus, bridges); printed as bicyclo[Tm-(D-Phe-Fpa-D-Thr-Pip-Nal-Arg-Ala-D-Phe)-Dap-(Arg-Nal-Arg-Phe-Arg-Arg-Dap)]-Lys) [peptide 44 (Table 18)]	450		
Trimesoyl-[dF][Phe(4-F)][dT][Pip′][2Nal]RA[dF][Dap]RR[2Nal]FRR[Dap]K (linker (positions not given here) via Trimesoyl; not fully specified (C-terminus, bridges); printed as bicyclo[Tm-(D-Phe-Fpa-D-Thr-Pip-Nal-Arg-Ala-D-Phe)-Dap-(Arg-Arg-Nal-Phe-Arg-Arg-Dap)]-Lys) [peptide 43 (Table 18)]	1380		
Trimesoyl-P[Sar][dD][Pip′][2Nal]RA[dA][dA][Dap]F[2Nal]RRRR[Dap]K-NH2 (linker (positions not given here) via Trimesoyl; not fully specified (some residues, bridges); printed as bicyclo[Tm-(Pro-Sar-D-Asp-Pip-Nal-Arg-Ala-D-Ala-D-Ala)-Dap-(Phe-Nal-Arg-Arg-Arg-Arg-Dap)]-Lys) [peptide 16 (Table 18)]	2490		
Trimesoyl-[dF][Phe(4-F)][dT][Pip′][2Nal]RA[dF][Dap]RRRR[2Nal]F[Dap]K (linker (positions not given here) via Trimesoyl; not fully specified (C-terminus, bridges); printed as bicyclo[Tm-(D-Phe-Fpa-D-Thr-Pip-Nal-Arg-Ala-D-Phe)-Dap-(Arg-Arg-Arg-Arg-Nal-Phe-Dap)]-Lys) [peptide 42 (Table 18)]	980		
[dA][Sar][d(pT)][Pip′][2Nal]YQK (lactam (positions not given here); not fully specified (C-terminus, bridges); printed as cyclo(D-Ala-Sar-D-pThr-Pip-Nal-Tyr-Gln)-Lys) [peptide 46 (Table 18)]	240		
Trimesoyl-[dF][Phe(4-F)][dT][Pip′][2Nal]RA[dF][Dap][dR]R[dR]R[2Nal][dF][Dap]K (linker (positions not given here) via Trimesoyl; not fully specified (C-terminus, bridges); printed as bicyclo[Tm-(D-Phe-Fpa-D-Thr-Pip-Nal-Arg-Ala-D-Phe)-Dap-(D-Arg-Arg-D-Arg-Arg-Nal-D-Phe-Dap)]-Lys) [peptide 45 (Table 18)]	3100		

Continued by falling Kd, values first:

Kd [nM]	fold increase of Pin1 inhibitory activity on substitution of D-Phe for D-Ala [fold]	fold improvement of binding affinity against peptide 4 [fold]	Binder
4830			Trimesoyl-P[Sar][dD][Pip′][2Nal]R[βAla][βAla][Dap]F[2Nal]RRRR[Dap]K-NH2 (linker (positions not given here) via Trimesoyl; not fully specified (some residues, bridges); printed as bicyclo[Tm-(Pro-Sar-D-Asp-Pip-Nal-Arg-β-Ala-β-Ala)-Dap-(Phe-Nal-Arg-Arg-Arg-Arg-Dap)]-Lys) [peptide 15 (Table 18)]
3420			Trimesoyl-P[Sar][dD][Pip′][2Nal]R[Dap]F[2Nal]RRRR[Dap]K-NH2 (linker (positions not given here) via Trimesoyl; not fully specified (some residues, bridges); printed as bicyclo[Tm-(Pro-Sar-D-Asp-Pip-Nal-Arg)-Dap-(Phe-Nal-Arg-Arg-Arg-Arg-Dap)]-Lys) [peptide 10 (Table 18)]
2360			Trimesoyl-[dF][Phe(4-F)][dT][Pip′][2Nal]R[Dap]F[2Nal]RRRR[Dap]K-NH2 (linker (positions not given here) via Trimesoyl; not fully specified (some residues, bridges); printed as bicyclo[Tm-(D-Phe-Fpa-D-Thr-Pip-Nal-Arg)-Dap-(Phe-Nal-Arg-Arg-Arg-Arg-Dap)]-Lys) [peptide 12 (Table 18)]
1750			Trimesoyl-P[Sar][dD][Pip′][2Nal]R[βAla][dA][Dap]F[2Nal]RRRR[Dap]K-NH2 (linker (positions not given here) via Trimesoyl; not fully specified (some residues, bridges); printed as bicyclo[Tm-(Pro-Sar-D-Asp-Pip-Nal-Arg-β-Ala-D-Ala)-Dap-(Phe-Nal-Arg-Arg-Arg-Arg-Dap)]-Lys) [peptide 14 (Table 18)]
900			Trimesoyl-[dF][Phe(4-F)][dT][Pip][2Nal]RA[Dap]F[2Nal]RRRR[Dap]K (linker (positions not given here) via Trimesoyl; not fully specified (C-terminus, bridges); printed as bicyclo[Tm-(D-Phe-Fpa-D-Thr-Pip-Nal-Arg-Ala)-Dap-(Phe-Nal-Arg-Arg-Arg-Arg-Dap)]-Lys; also: FITC on C-terminal Lys side chain (FA labeling)) [peptide 11 (Table 18)]
590			Trimesoyl-[D‑2‑Fpa][Phe(4-F)][dT][Pip′][2Nal]RA[dF][Dap]F[2Nal]RRRR[Dap]K (linker (positions not given here) via Trimesoyl; not fully specified (C-terminus, bridges); printed as bicyclo[Tm-(D-2-Fpa-Fpa-D-Thr-Pip-Nal-Arg-Ala-D-Phe)-Dap-(Phe-Nal-Arg-Arg-Arg-Arg-Dap)]-Lys) [peptide 35 (Table 18)]
460			Trimesoyl-[D‑4‑Phe][Phe(4-F)][dI][Pip′][2Nal]RA[dF][Dap]F[2Nal]RRRR[Dap]K (linker (positions not given here) via Trimesoyl; not fully specified (C-terminus, bridges); printed as bicyclo[Tm-(D-4-Phe-Fpa-D-Ile-Pip-Nal-Arg-Ala-D-Phe)-Dap-(Phe-Nal-Arg-Arg-Arg-Arg-Dap)]-Lys; reading uncertain) [peptide 39 (Table 18)]
390			Trimesoyl-[D‑3‑Fpa][Phe(4-F)][dT][Pip′][2Nal]RA[dF][Dap]F[2Nal]RRRR[Dap]K (linker (positions not given here) via Trimesoyl; not fully specified (C-terminus, bridges); printed as bicyclo[Tm-(D-3-Fpa-Fpa-D-Thr-Pip-Nal-Arg-Ala-D-Phe)-Dap-(Phe-Nal-Arg-Arg-Arg-Arg-Dap)]-Lys) [peptide 36 (Table 18)]
350			Trimesoyl-[dPhe(4-CN)][Phe(4-F)][dT][Pip′][2Nal]RA[dF][Dap]F[2Nal]RRRR[Dap]K (linker (positions not given here) via Trimesoyl; not fully specified (C-terminus, bridges); printed as bicyclo[Tm-(D-4-CyanoPhe-Fpa-D-Thr-Pip-Nal-Arg-Ala-D-Phe)-Dap-(Phe-Nal-Arg-Arg-Arg-Arg-Dap)]-Lys) [peptide 38 (Table 18)]
270		2	Trimesoyl-[dF][Phe(4-F)][dT][Pip′][2Nal]RA[dF][Dap]F[2Nal]RRRR[Dap]K-NH2 (linker (positions not given here) via Trimesoyl; not fully specified (some residues, bridges); printed as bicyclo[Tm-(D-Phe-4-Fpa-D-Thr-Pip-Nal-Arg-Ala-D-Phe)-Dap-(Phe-Nal-Arg-Arg-Arg-Arg-Dap)]-Lys) [peptide 27 (Table 18)]

From patent US20170355730A1
